{
  "source": "patent US20150284465A1",
  "about": "(Chugai, published 2015)",
  "binders": {"B1": {"name": "WT-IgG2 (antibody)", "heavy": "QVQLQESGPGLVRPSQTLSLTCTVSGYSITSDHAWSWVRQPPGRGLEWIGYISYSGITTYNPSLKSRVTMLRDTSKNQFSLRLSSVTAADTAVYYCARSLARTTAMDYWGQGSLVTVSSASTKGPSVFPLAPCSRSTSESTAALGCLVKDYFPEPVTVSWNSGALTSGVHTFPAVLQSSGLYSLSSVVTVPSSNFGTQTYTCNVDHKPSNTKVDKTVERKCCVECPPCPAPPVAGPSVFLFPPKPKDTLMISRTPEVTCVVVDVSHEDPEVQFNWYVDGVEVHNAKTKPREEQFNSTFRVVSVLTVVHQDWLNGKEYKCKVSNKGLPAPIEKTISKTKGQPREPQVYTLPPSREEMTKNQVSLTCLVKGFYPSDIAVEWESNGQPENNYKTTPPMLDSDGSFFLYSKLTVDKSRWQQGNVFSCSVMHEALHNHYTQKSLSLSPGK", "light": "not shown"}, "B2": {"name": "WT-M11ΔGK (antibody)", "heavy": "QVQLQESGPGLVRPSQTLSLTCTVSGYSITSDHAWSWVRQPPGRGLEWIGYISYSGITTYNPSLKSRVTMLRDTSKNQFSLRLSSVTAADTAVYYCARSLARTTAMDYWGQGSLVTVSSASTKGPSVFPLAPSSKSTSGGTAALGCLVKDYFPEPVTVSWNSGALTSGVHTFPAVLQSSGLYSLSSVVTVPSSSLGTKTYTCNVDHKPSNTKVDKTVERKSCVECPPCPAPPVAGPSVFLFPPKPKDTLMISRTPEVTCVVVDVSQEDPEVQFNWYVDGVEVHNAKTKPREEQFNSTYRVVSVLTVLHQDWLNGKEYKCKVSNKGLPSSIEKTISKAKGQPREPQVYTLPPSQEEMTKNQVSLTCLVKGFYPSDIAVEWESNGQPENNYKTTPPVLDSDGSFFLYSKLTVDKSRWQEGNVFSCSVMHEALHNHYTQKSLSLSL", "light": "not shown"}, "B3": {"name": "WT-M17ΔGK (antibody, human IgG1, kappa)", "heavy": "QVQLQESGPGLVRPSQTLSLTCTVSGYSITSDHAWSWVRQPPGRGLEWIGYISYSGITTYNPSLKSRVTMLRDTSKNQFSLRLSSVTAADTAVYYCARSLARTTAMDYWGQGSLVTVSSASTKGPSVFPLAPSSKSTSGGTAALGCLVKDYFPEPVTVSWNSGALTSGVHTFPAVLQSSGLYSLSSVVTVPSSSLGTQTYICNVNHKPSNTKVDKKVEPKSCDKTHTCPPCPAPPVAGPSVFLFPPKPKDTLMISRTPEVTCVVVDVSHEDPEVKFNWYVDGVEVHNAKTKPREEQYNSTYRVVSVLTVLHQDWLNGKEYKCKVSNKGLPSSIEKTISKAKGQPREPQVYTLPPSRDELTKNQVSLTCLVKGFYPSDIAVEWESNGQPENNYKTTPPVLDSDGSFFLYSKLTVDKSRWQQGNVFSCSVMHEALHNHYTQKSLSLSP", "light": "not shown"}, "B4": {"name": "H96/PF1L-IgG1 (antibody, V domains shown)", "VH": "QVQLQESGPGLVKPSETLSLTCAVSGYSISDDHAWSWVRQPPGEGLEWIGYISYSGITNYNPSLKGRVTISRDNSKNTLYLQMNSLRAEDTAVYYCARVLARITAMDYWGEGTLVTVSS", "VL": "DIQMTQSPSSLSASVGDSVTITCQASQDISSYLNWYQQKPGKAPELLIYYGSELHSGVPSRFSGSGSGTDFTFTISSLEAEDAATYYCGQGNRLPYTFGQGTKVEIE"}},
  "key": {"[1]": {"biological_target": "T1, human-derived Fcγ receptor IIb (Recombinant Human FcRIIB/C, R&D systems) (human, UniProt P31994 46-217, limits assumed)", "T1 construct": "Bought recombinant protein, construct not described; also called FcγRIIb", "T1 sequence (looked up)": "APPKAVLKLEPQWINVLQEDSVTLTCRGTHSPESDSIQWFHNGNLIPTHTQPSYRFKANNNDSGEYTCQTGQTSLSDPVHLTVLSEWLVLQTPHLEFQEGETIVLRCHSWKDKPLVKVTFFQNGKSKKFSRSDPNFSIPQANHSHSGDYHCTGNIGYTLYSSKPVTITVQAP", "experiment": "SPR (Biacore T100), FcγRIIb immobilized on CM5, antibody as analyte at 200 µg/ml, 25 C", "experimental": "The FcγRIIb binding was assessed by the procedure described below. […] The amounts of bound antibody were compared. […] FcγRIIb was immobilized onto the sensor chip CM5 (Biacore) by the amine coupling method. The final amount of immobilized FcγRIIb was about 4,300 RU. Then, the running buffer was injected until the baseline was stabilized. The measurement was carried out after the baseline was stabilized. […] The running buffer used was HBS-EP+ (10 mM HEPES, 0.15M NaCl, 3 mM EDTA, 0.05% v/v Surfactant P20), and the flow rate was 20 μl/min. The measurement temperature was 25° C. The concentration of each IgG or modified form thereof was adjusted to 200 μg/ml. 20 μl of an analyte was injected and allowed to interact with the immobilized FcγRIIb. After interaction, the analyte was dissociated from FcγRIIb and the sensor chip was regenerated by injecting 200 μl of the running buffer. […] This series of injection was repeated twice."}, "[2]": {"biological_target": "T2, hFcγRIIIaV-His6 (human-derived Fcγ receptor IIIa, Val) (human, UniProt P08637 17-208, limits assumed)", "T2 construct": "also called FcγRIIIa (Val); not shown: His6 tag", "T2 sequence (P08637 17-208 F176V limits assumed)": "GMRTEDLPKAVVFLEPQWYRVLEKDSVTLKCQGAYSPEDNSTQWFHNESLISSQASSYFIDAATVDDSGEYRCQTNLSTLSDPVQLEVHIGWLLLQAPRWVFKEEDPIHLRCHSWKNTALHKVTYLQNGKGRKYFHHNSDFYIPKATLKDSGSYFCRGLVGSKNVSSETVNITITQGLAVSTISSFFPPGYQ", "experiment": "SPR (Biacore T100), hFcγRIIIaV-His6 immobilized on CM5, antibody as analyte at 250 µg/ml", "experimental": "The FcγRIIIa binding was assessed by the procedure described below. […] The amounts of bound antibody were compared. […] FcγRIIIa was immobilized onto the sensor chip CM5 (Biacore) by the amine coupling method. […] The running buffer used was HBS-EP+, and the flow rate was 5 μl/min. The sample concentration was adjusted to 250 μg/ml using HBS-EP+. The analysis included two steps: two minutes of association phase where 10 μl of an antibody solution was injected and the subsequent four minutes of dissociation phase where the injection was switched with HBS-EP+. After the dissociation phase, the sensor chip was regenerated by injecting 20 μl of 5 mM hydrochloric acid. The association, dissociation, and regeneration constitute one analysis cycle. Various antibody solutions were injected to obtain sensorgrams. […] 1999 August; 29(8):2613-24."}, "[3]": {"biological_target": "T3, SR344 (N-terminal 1st to 344th amino acids of soluble human IL-6R) (human, UniProt P08887 20-344, limits assumed)", "T3 construct": "also called recombinant soluble IL-6 receptor; soluble human IL-6 receptor", "T3 sequence (looked up)": "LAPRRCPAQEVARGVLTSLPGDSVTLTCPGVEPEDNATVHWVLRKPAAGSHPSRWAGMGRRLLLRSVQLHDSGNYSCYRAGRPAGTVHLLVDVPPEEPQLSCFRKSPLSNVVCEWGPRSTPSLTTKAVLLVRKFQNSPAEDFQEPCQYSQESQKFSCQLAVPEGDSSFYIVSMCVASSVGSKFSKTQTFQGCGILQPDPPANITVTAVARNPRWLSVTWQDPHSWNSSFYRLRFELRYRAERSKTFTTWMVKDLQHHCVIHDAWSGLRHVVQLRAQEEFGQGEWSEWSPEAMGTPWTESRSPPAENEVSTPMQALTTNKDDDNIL", "experiment": "SPR (Biacore T100), Protein A/G capture, SR344 at 0, 0.36 and 1.4 µg/ml, 15 min dissociation, 37 C", "experimental": "This measurement was carried out under the same conditions described in Example 2. The running buffer used was HBS-EP+, and the flow rate was 20 μl/min. Each antibody was prepared so that about 100 RU of the antibody was bound to Protein A/G. SR344 was prepared at 0, 0.065, 0.131, and 0.261 μg/ml using HBS-EP+ and used as an analyte. In the first step of the measurement, the antibody in solution was bound to Protein A/G, and the analyte solution was allowed to interact therewith. After three minutes of interaction, the solution was switched to HBS-EP+, and the dissociation phase was monitored for 10 or 15 minutes. After measurement of the dissociation phase, the sensor chip was regenerated by washing with 10 μl of 10 mM glycine-HCl (pH 1.5). The association, dissociation, and regeneration constitute one analysis cycle. Each antibody was measured according to this cycle.\nThe Tm of purified H96/PF1L-IgG1 was determined by the method described in Example 5. The affinity measurement was carried out under essentially the same conditions used in Example 5. Note that the concentration of SR344 was adjusted to 0, 0.36, and 1.4 μg/ml, and the dissociation phase was monitored for 15 minutes."}},
  "data": [
    {"binder": "B1", "values": [
      {"measurement": "binding result", "setting": "[1]", "value": "binds"},
      {"measurement": "binding result", "setting": "[2]", "value": "binds"}
    ]},
    {"binder": "B2", "values": [
      {"measurement": "binding result", "setting": "[1]", "value": "binds"},
      {"measurement": "binding result", "setting": "[2]", "value": "binds"}
    ]},
    {"binder": "B3", "values": [
      {"measurement": "binding result", "setting": "[1]", "value": "binds"},
      {"measurement": "binding result", "setting": "[2]", "value": "binds"}
    ]},
    {"binder": "B4", "values": [
      {"measurement": "Kd", "setting": "[3]", "value": 0.039, "unit": "nM"},
      {"measurement": "koff", "setting": "[3]", "value": "4.8e-05", "unit": "s⁻¹"},
      {"measurement": "kon", "setting": "[3]", "value": "1.2e+06", "unit": "M⁻¹ s⁻¹"}
    ]}
  ]
}
